Test results taken from patent publication US20060020110A1, “Synthetic peptides that bind to the hepatitis B virus core and E antigens” (priority 2000, published 2006).
Where two headings read alike, the source gives them in different places.

Assays:
[1] = target: T1, HBeAg (Hepatitis B virus genotype D subtype ayw, UniProt P0C573); experiment: Binding of HBeAg to support-bound peptides (EIA); details: antigen at concentrations as low as 0.67 μg/ml, TABLE 8
T1 construct: containing nine residues of pre-core and the 150 first residues of HBcAg; made in house

[2] = target: T2, HBcAg (Hepatitis B virus genotype D subtype ayw, UniProt P03146); details: for Lowest peptide concentration that prevented binding of mAb 4-2: peptide in the presence of mAb 4-2
Protocol: (§1) Variations of the characterization assays described above include competitive binding assays. […] Initial experiments were conducted by contacting binding partner to HBcAg prior to introducing the antibody. […] ID. […] ID. […] ID. […] ID. […] ID. […] ID.

[3] = target: T2, HBcAg; details: for Inhibition of mAb 4-2 binding to HBcAg (in words): peptide contacted with HBcAg prior to antibody; for OD at 490 nm, mAb 4-2 binding to HBcAg: peptide added prior to addition of mAb, uninhibited control mean OD 0.871
Text: (§2) One approach to rational drug design involves sequential amino acid deletion of a known binding partner starting from either the amino or carboxy termini. Amino-terminal deletions of the binding partners of SEQ. ID. Nos. 5 and 17 were made and these peptide fragments were joined to a support and analyzed for the ability to bind HBcAg. […] ID. […] The amino-terminal deletions of the peptide of SEQ. ID. […] The amino-terminal deletion products of the peptide of SEQ. ID. […] ID.
as §1

[4] = target: T2, HBcAg; details: for Binding to HBcAg (in words): support-bound peptides; for Binding of 10 μg/ml HBcAg to dilutions of support-bound peptide (in words): at low concentrations, TABLE 9; for OD at 490 nm, HBcAg binding to support-bound amino terminal deletion peptides: HBcAg added at 5 μg/ml
Text: as §2
To determine whether a candidate binding partner bound to HBcAg and/or HbeAg, a multimeric support-based binding assay was performed. Accordingly, synthetic peptides corresponding to the VH and VL domains of the sequenced mAbs were passively adsorbed to 96 well microplates in serial dilutions starting at 200 μg/ml. The peptide coated plates were then incubated with HBcAg and HBeAg serially diluted in PBS-GT. The amount of HBcAg and HBeAg bound by the peptides was then detected using a mAb directed to an epitope common to HBcAg and HBeAg (See Sällberg et al., J General Virology 74:1335-1340 (1993), herein expressly incorportaed by reference in its entirety) diluted 1:3000 in PBS-GT. The quantity of bound mAb was determined by addition by peroxidase labeled rabbit anti-mouse IgG (P260, Dako A S, Denmark). The plates were developed by incubation with ortho-phenylene-diamine (Sigma) and the absorbance at 492 nm was evaluated.
The converse of an aspect of this experiment was also performed. That is, various dilutions of support-bound binding partners (SEQ. ID. Nos. 5, 16, 17, 28, and 29) were contacted with 10 μg/ml of HBcAg and binding was evaluated. ID.

[5] = system: mAb specific for HSV gG2; experiment: gG2 mAb binding to fusion peptide on solid phase; details: for gG2 mAb binding to indicated antigen on solid phase: fusion peptide: no addition of fusion peptide in solution; for Binding of mAb specific for HSV gG2 to coated specificity exchanger (in words): specificity exchanger coated onto microtiterplates
Text: (§3) ID. […] The specificity exchangers provided in SEQ. ID. […] Similarly, the specificity exchangers provided in SEQ. ID.

[6] = target: T2, HBcAg; details: for gG2 mAb binding to indicated antigen on solid phase: HBcAg: fusion peptide in solution 20 μg/well
Protocol: To evaluate the efficacy of the specificity exchangers described above, several binding assays using a mAb specific for HSV gG2 were conducted. In one assay, the various specificity exchangers were coated onto microtiterplates and were bound with the mAb specific for HSV gG2. […] ID. […] In another assay, HBcAg was coated onto microtiter plates, specificity exchanger was added (20 μg/well), and the binding of the mAb specific for HSV gG2 was determined. […] ID. […] In another binding assay, HBeAg was coated onto microtiter plates, specificity exchanger was added (20 μg/well), and the binding of the mAb specific for HSV gG2 was determined. […] ID. […] The characterization assays used to evaluate binding partners can also be used and/or modified for the analysis of the specificity exchangers.

[7] = target: T1, HBeAg; experiment: Redirection of HSV gG2 mAb to HBeAg on solid phase by fusion peptide in solution; format: binding; details: for gG2 mAb binding to indicated antigen on solid phase: HBeAg: fusion peptide in solution 20 μg/well
Text: as §3

[8] = system: B cell - mediated antigen presentation of HBcAg to experienced T cells; experiment: Inhibition of B cell-mediated antigen presentation of HBcAg to experienced T cells; format: cell-based, Balb/c mice
Protocol: A characterization assay that was used to evaluate the ability of a binding partner to modulate a host immune system response to HBV was conducted as follows. Groups of Balb/c mice were immunized subcutaneously with 20 μg HBcAg. Ten days later, draining lymph nodes were harvested and experienced CD4^+ T cells were purified using anti-CD4 coated magnetic beads (Dynal A S, Oslo, Norway) according to the manufacturers instructions. Naïve B cells were obtained from syngeneic mice, which had not been immunized. These B cells were used as antigen presenting cells in the characterization assay.
The ability of the different mAbs and peptides to block B cell uptake and antigen presentation of HBcAg-peptides to HBcAg-specific CD4+ T cells was then tested in vitro. The cell populations were mixed at a B/T cell ratio of 1:5 and added at a final concentration of approximately 2.5×10^5 to 5.0×10^5 cells per well in a 96 well microplate. Approximately, 20 μg of HBcAg was preincubated with the binding partner. The binding partner mixtures were then added to the cells and the plates were incubated for 26 to 96 hours at 37° C. The effect of the binding partners on T cell proliferation was determined by monitoring [^3H] thymidine incorporation.

[9] = peptide 100 μg/ml in the presence of mAb 4-2
[10] = peptide 200 μg/ml in the presence of mAb 4-2
[11] = concentrations as low as 100 μg/ml
[12] = antigen at concentrations as low as 0.67 μg/ml, TABLE 8
[13] = specificity exchanger 20 μg/well

T2 sequence (P03146 whole entry): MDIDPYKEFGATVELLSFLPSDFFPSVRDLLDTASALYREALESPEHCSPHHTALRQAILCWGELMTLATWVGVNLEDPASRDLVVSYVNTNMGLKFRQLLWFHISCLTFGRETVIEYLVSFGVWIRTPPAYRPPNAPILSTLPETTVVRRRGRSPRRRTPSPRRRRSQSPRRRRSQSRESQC
T1 sequence (P0C573 21-179): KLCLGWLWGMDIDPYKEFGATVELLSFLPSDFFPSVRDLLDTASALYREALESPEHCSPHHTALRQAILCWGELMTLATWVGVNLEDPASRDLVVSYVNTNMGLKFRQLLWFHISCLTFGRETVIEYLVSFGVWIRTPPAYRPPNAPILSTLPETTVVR

Row | Sequence | Binding to HBeAg (in words) [1] | Inhibition of mAb 4-2 binding to HBcAg (in words) ([3]; peptide 200 μg/ml) | Binding to HBcAg (in words) ([4]; TABLE 7) | Binding to HBcAg (in words) [4, 12] | gG2 mAb binding to indicated antigen on solid phase: fusion peptide [5] | gG2 mAb binding to indicated antigen on solid phase: HBcAg [6] | gG2 mAb binding to indicated antigen on solid phase: HBeAg [7] | further results
1 | CKASGYSFTGYNMNWVKQSH (Synthetically prepared amino acid sequence) [Peptide 26] | appreciable binding | able to inhibit binding of mAb 4-2 | high affinity | appreciable binding | – | – | – | Competition with mAb 4-2 for binding to HBcAg (in words) [2, 9]: effectively competed with mAb 4-2; Competition with mAb 4-2 for binding to HBcAg (in words) [2, 10]: significantly inhibited; Inhibition of mAb 4-2 binding to HBcAg (in words) ([3]; concentrations as low as 50 μg/ml): appreciably reduced binding of mAb 4-2; Inhibition of mAb 4-2 binding to HBcAg (in words) [3, 11]: effectively reduced binding of the antibody
2 | ISCRASQSVSTSSYSYMHWY (Synthetically prepared amino acid sequence) [Peptide 14] | appreciable binding | able to inhibit binding of mAb 4-2 | high affinity | appreciable binding | – | – | – | Binding of 10 μg/ml HBcAg to dilutions of support-bound peptide (in words) [4]: appreciable binding at low concentrations
3 | KLSCKASGYIFTSEHRGGPEE [SEQ. ID. No. 70] | – | – | – | – | 0.040 | 0.020 | 0.022 | –
4 | KLSCKASGYIFTSHRGGPEEF [SEQ. ID. No. 71] | – | – | – | – | 1.622 | 0.550 | 0.638 | Binding of mAb specific for HSV gG2 to coated specificity exchanger (in words) [5]: appreciably bound the mAb; Binding to immobilized HBcAg allowing binding of HSV gG2 mAb (in words) [6, 13]: appreciably bound the immobilized HBcAg; Binding to immobilized HBeAg allowing binding of HSV gG2 mAb (in words) [7, 13]: appreciably bound the immobilized HBeAg
5 | KLSCKASGYIFTSRGGPEEFE [SEQ. ID. No. 72] | – | – | – | – | 0.062 | 0.016 | 0.040 | –
6 | LAVSLGQRATISCRASQSVS (Synthetically prepared amino acid sequence) [Peptide 13] | appreciable binding | able to inhibit binding of mAb 4-2 | high affinity | appreciable binding | – | – | – | Competition with mAb 4-2 for binding to HBcAg (in words) [2, 9]: effectively competed with mAb 4-2; Competition with mAb 4-2 for binding to HBcAg (in words) [2, 10]: significantly inhibited; Lowest peptide concentration that prevented binding of mAb 4-2 [2]: 6.25 µg/mL; Binding of 10 μg/ml HBcAg to dilutions of support-bound peptide (in words) [4]: appreciable binding at low concentrations
7 | QQKPGQPPKLLIKYASNLES (Synthetically prepared amino acid sequence) [Peptide 16] | – | – | – | – | – | 0.038 | 0.022 | Inhibition of B cell mediated antigen presentation of HBcAg to specific CD4+ T cells (in words) [8]: no inhibition; cpm ([3H] thymidine incorporation, T cell proliferation) ([8]; T + B cells, 20 μg HBcAg preincubated with inhibitor, positive control 573, background 110): 572 cpm; % inhibition of APC ([8]; T + B cells, 20 μg HBcAg, calculated from cpm versus positive control and background proliferation): 0%
8 | SVKLSCKASGYIFTS [SEQ. ID. No. 43] | – | – | – | – | – | – | – | OD at 490 nm, mAb 4-2 binding to HBcAg [3]: 0.175; OD at 490 nm, HBcAg binding to support-bound amino terminal deletion peptides [4]: 3.364
9 | VKLSCKASGYIFTS [SEQ. ID. No. 44] | – | – | – | – | – | – | – | OD at 490 nm, mAb 4-2 binding to HBcAg [3]: 0.152; OD at 490 nm, HBcAg binding to support-bound amino terminal deletion peptides [4]: 3.703
10 | VKLSCKASGYIFTSEHRGGPE [SEQ. ID. No. 73] | – | – | – | – | 0.060 | 0.038 | 0.029 | –
11 | VKLSCKASGYIFTSGGPEEFE [SEQ. ID. No. 76] | – | – | – | – | 0.018 | 0.025 | 0.024 | –
12 | VKLSCKASGYIFTSHRGGPEE [SEQ. ID. No. 75] | – | – | – | – | 0.213 | 0.037 | 0.032 | Binding of mAb specific for HSV gG2 to coated specificity exchanger (in words) [5]: appreciably bound the mAb
13 | VKPGASVKISCKASGYSFTG (Synthetically prepared amino acid sequence) [Peptide 25] | appreciable binding | able to inhibit binding of mAb 4-2 | high affinity | appreciable binding | – | – | – | Competition with mAb 4-2 for binding to HBcAg (in words) [2, 9]: effectively competed with mAb 4-2; Competition with mAb 4-2 for binding to HBcAg (in words) [2, 10]: significantly inhibited; Lowest peptide concentration that prevented binding of mAb 4-2 [2]: 12.5 µg/mL; Inhibition of mAb 4-2 binding to HBcAg (in words) [3, 11]: effectively reduced binding of the antibody; Binding of 10 μg/ml HBcAg to dilutions of support-bound peptide (in words) [4]: appreciable binding at low concentrations
